For five molecules, binding result and Kd results are on record in PMC4811204 (Nature structural & molecular biology, 2013).

Where no end group is shown, it is not given here. [ ]: non-standard residue; d: D form. pS = N[C@@H](COP(=O)(O)O)C(=O)O

The chains are these.
B1: MBP-fused full-length human Tristetraprolin (TTP) (natural protein, UniProt P26651 1-326, looked up)
chain: MDLTAIYESLLSLSPDVPVPSDHGGTESSPGWGSSGPWSLSPSDSSPSGVTSRLPGRSTSLVEGRSCGWVPPPPGFAPLAPRLGPELSPSPTSPTATSTTPSRYKTELCRTFSESGRCRYGAKCQFAHGLGELRQANRHPKYKTELCHKFYLQGRCPYGSRCHFIHNPSEDLAAPGHPPVLRQSISFSGLPSGRRTSPPPPGLAGPSLSSSSFSPSSSPPPPGDLPLSPSAFSAAPGTPLARRDPTPVCCPSCRRATPISVWGPLGGLVRTPSVQSLGSDPDEYASSGSSLGGSDSPVFEAGVFAPPQPVAAPRRLPIFNRISVSE
B3: GST-tagged CNOT1(800–1015) (domain or fragment, human, UniProt A5YKK6-2 800-1015, looked up)
chain: NNDPFVQRKLGTSGLNQPTFQQTDLSQVWPEANQHFSKEIDDEANSYFQRIYNHPPHPTMSVDEVLEMLQRFKDSTIKREREVFNCMLRNLFEEYRFFPQYPDKELHITACLFGGIIEKGLVTYMALGLALRYVLEALRKPFGSKMYYFGIAALDRFKNRLKDYPQYCQHLASISHFMQFPHHLQEYIEYGQQSRDPPVKMQGSITTPGSIALAQA

For experiment [1], the target named is GST-fused CNOT1 fragment, residues 727–1266 (human, UniProt A5YKK6-2 727-1266). Nature of the experiment: pull-down.
For experiment [2], the target named is CNOT1(800–999), TTP-interacting fragment of CNOT1 (human, UniProt A5YKK6-2 800-999). Nature of the experiment: ITC. Background: Isothermal titration calorimetry measures the heat released or taken up as one component is titrated into another.
For experiment [3], the target named is B3. Nature of the experiment: pull-down.
The target of experiment [4] is T1, MBP-TTP lacking amino acids 179–192 (TTP-MUT1) (human, UniProt P26651 1-326, lacking amino acids 179–192).
T1 sequence (looked up): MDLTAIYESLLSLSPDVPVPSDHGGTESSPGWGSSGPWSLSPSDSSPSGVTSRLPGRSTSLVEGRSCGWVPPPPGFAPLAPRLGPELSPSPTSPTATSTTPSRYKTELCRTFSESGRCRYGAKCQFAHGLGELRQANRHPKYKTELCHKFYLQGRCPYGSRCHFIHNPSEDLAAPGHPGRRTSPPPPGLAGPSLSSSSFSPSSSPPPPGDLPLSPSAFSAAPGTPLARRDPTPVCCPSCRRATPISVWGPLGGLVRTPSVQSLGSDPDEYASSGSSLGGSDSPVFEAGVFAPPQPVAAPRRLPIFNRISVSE
Nature of the experiment: pull-down.

Experiment [5] deals with B1. Nature of the experiment: pull-down.

On to B1, for which, in experiment [1], the binding result is “binds”.
By Kd is commonly meant the equilibrium constant for the complex coming apart. A low value points to higher affinity. In experiment [2], APRRLPIFNRI[pS]VSE [TTP-CIM peptide 312–326 containing phospho-Ser323] yielded an equilibrium dissociation constant (Kd) of roughly 0.625 mM.

B2: MBP-tagged TTP-CTD with Asn320 mutated to alanine (domain or fragment, human, UniProt P26651 174-326, looked up)
chain: APGHPPVLRQSISFSGLPSGRRTSPPPPGLAGPSLSSSSFSPSSSPPPPGDLPLSPSAFSAAPGTPLARRDPTPVCCPSCRRATPISVWGPLGGLVRTPSVQSLGSDPDEYASSGSSLGGSDSPVFEAGVFAPPQPVAAPRRLPIFARISVSE
As for B2, the binding result in experiment [3] is listed as “binds”.
In experiment [2], APRRLPIANRISVSE [TTP peptide 312–326, Phe319Ala mutant] gave a Kd of roughly 7 mM.
As for B3, the binding result in experiment [4] and in experiment [5] was “binds” in each case.
